# In the supplement of paper PMC10567573:
# B1: SMG5 (parent)
# chain: FVSIAQSEQESLLQQAQAQFRMAQ
# B2: TRIM39 (parent)
# chain: ERDFPCPVCRKTSRYRSLRPNRQL
# Variants of: B1
# Assay: protein stability index of a GFP-peptide fusion (GPS, HEK-293T) (PSI 1-6); higher = more stable
# Details: c terminus: a fixed tail appended
# 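Note: lentivirally expressed fusions sorted by FACS into six bins by GFP to DsRed ratio, PSI derived from sequencing read proportions per bin multiplied by bin number.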
row,Variant,protein stability index
1,R21Y,2.63
2,R21Q,2.6
3,R21H,2.4
4,R21C,1.44
5,R21N,1.94
6,R21L,2.43
7,R21P,2.17
8,R21I,1.76
9,R21F,1.92
10,R21G,2.08
11,R21D,2.48
12,R21W,3.6
13,R21A,2.27
14,R21M,1.89
15,R21S,1.82
16,R21K,2.59
17,R21V,2.56
18,R21T,2.32
19,R21E,2.64
20,Q24P,2.38
21,Q24R,2.57

row,Variant,protein stability index
1,Q24N,2.24
2,Q24M,1.88
3,Q24L,2.4
4,Q24T,2.08
5,Q24K,2.65
6,Q24W,2.76
7,Q24C,1.94
8,Q24E,2.74
9,Q24F,2.48
10,Q24H,1.92
11,Q24I,2.11
12,Q24D,2.12
13,Q24Y,2.1
14,Q24G,1.71
15,Q24S,2.65
16,Q24A,2.15
17,Q24V,1.63
18,M22D,2.68
19,M22T,2.5
20,M22H,2.26
21,M22R,2.7

row,Variant,protein stability index
1,M22P,2.25
2,M22E,2.57
3,M22C,3.04
4,M22S,2.92
5,M22A,2.43
6,M22G,2.3
7,M22K,2.13
8,M22W,2.4
9,M22N,1.94
10,M22V,2.61
11,M22F,2.2
12,M22Q,2.05
13,M22L,2.01
14,M22I,2.14
15,M22Y,2.13
16,A23R,2.26
17,A23G,2.46
18,A23C,2.1
19,A23L,2.4
20,A23T,2.33
21,A23D,2.21

row,Variant,protein stability index
1,A23F,1.75
2,A23K,2.12
3,A23H,2.85
4,A23I,2.22
5,A23S,2.31
6,A23E,2.85
7,A23Q,2.29
8,A23M,2.17
9,A23W,2.58
10,A23N,2.12
11,A23Y,2.16
12,A23P,1.91
13,A23V,2.02
14,F20Y,2.49
15,F20T,3.17
16,F20V,2.37
17,F20S,2.57
18,F20W,1.82

# Variants of: B2
# Assay: as above
# Details: c terminus: a fixed tail appended
row,Variant,protein stability index
1,V8Y,1.95
2,V8A,2.89
3,V8C,2.66
4,V8I,2.38
5,V8P,3.91
6,V8K,2.68
7,V8M,2.31
8,V8T,3.06
9,V8D,2.2
10,V8S,3.84
11,V8F,1.41
12,V8H,2.34
13,V8Q,2.35
14,V8N,2.43
15,R19I,2.1
16,R19A,1.63
17,R19P,1.98
18,R19T,1.75
19,R19L,2
20,R19G,1.89
21,K11N,3.36
22,K11Q,2.4
23,K11W,2.84
24,K11G,1.75
25,K11S,2.25
26,K11E,1.17

row,Variant,protein stability index
1,K11I,1.21
2,K11M,1.65
3,K11D,1.7
4,K11C,2.55
5,K11F,1.88
6,R10Y,2.03
7,R10K,2.14
8,R10T,2.16
9,R10A,1.88
10,R10H,2.53
11,R10F,1.74
12,R10M,2.88
13,R10S,1.15
14,R10V,2.04
15,R10N,2.22
16,R10C,3.16
17,R10G,4.1
18,Q23N,2.77
19,Q23P,1.47
20,Q23S,2.17
21,Q23L,1.87
22,Q23C,1.8
23,Q23W,2.26
24,Q23A,1.33
25,Q23H,3.18
26,Q23G,2.46

row,Variant,protein stability index
1,Q23M,2.27
2,Q23R,1.71
3,Q23T,2.9
4,Q23F,1.67
5,P5M,2.26
6,P5S,2.04
7,P5E,1.76
8,P5Y,2
9,P5D,2.49
10,P5C,2.9
11,P5I,2.91
12,P5A,1.74
13,P5W,1.87
14,P5G,1.67
15,P5F,1.81
16,P5T,2.93
17,P5L,3
18,P5N,1.84
19,P5Q,1.18
20,T12S,2.17
21,T12L,2.13
22,T12A,2.64
23,T12G,2.05
24,T12D,1.37
25,T12Y,1.7
26,T12K,2.64

row,Variant,protein stability index
1,N21S,1.91
2,N21M,2.74
3,N21K,2.78
4,N21W,2.53
5,N21E,1.71
6,N21D,2.12
7,C6V,3.23
8,C6Y,3.21
9,C6S,3.17
10,C6G,3.97
11,C6D,3.74
12,C6K,3.13
13,C6F,2.03
14,C6Q,3.24
15,C6W,2.01
16,F4V,2.39
17,F4T,1.82
18,F4N,2.89
19,F4D,2.93
20,F4G,2.3
21,F4Q,2.13
22,F4I,2.35
23,F4P,2.41
24,F4S,1.81
25,E1D,2.4
26,E1Q,2.06

row,Variant,protein stability index
1,E1P,2.93
2,E1R,2.71
3,E1N,2.01
4,E1Y,1.66
5,E1V,2.06
6,E1L,2.34
7,E1K,1.77
8,R22M,2.86
9,R22Y,2.23
10,R22G,2.17
11,R22T,2.04
12,R22L,1.83
13,R22S,1.5
14,R22V,1.76
15,R22I,1.93
16,R22F,1.79
17,R22E,2.4
18,R22D,2.37
19,R22H,1.56
20,R22N,1.6
21,R22K,2.66
22,S13D,2.56
23,S13C,2.82
24,S13N,2.12
25,S13V,2.1
26,S13K,1.77

row,Variant,protein stability index
1,S13R,2.49
2,S13Q,2.1
3,S13P,2.74
4,S13I,2.4
5,S13F,2.46
6,S13E,2.21
7,S13A,2.01
8,S13H,2.82
9,R16E,2.54
10,R16F,2.57
11,R16Y,1.74
12,R16L,1.53
13,R16P,2.1
14,R16V,2.04
15,R16Q,1.91
16,R16G,1.29
17,R14D,2.08
18,R14V,1.39
19,R14G,2.13
20,R14I,2.28
21,R14C,2.85
22,R14Q,2
23,R14L,2.09
24,R14S,1.66
25,P20Q,2.17
26,P20K,2.58

row,Variant,protein stability index
1,P20M,3.02
2,P20R,4.09
3,P20A,2.22
4,P20W,1.84
5,P20E,2.04
6,P20N,1.77
7,P20T,2.13
8,P20H,1.87
9,P20L,1.75
10,P20V,2.07
11,P20D,2.06
12,P20I,1.6
13,L24Q,3.08
14,L24A,1.81
15,L24R,3.37
16,L24G,2.06
17,L24T,2.51
18,L24S,3.32
19,L24V,2.19
20,L24P,3.2
21,L24F,2.04
22,L24N,2.41
23,L24D,1.75
24,S17K,2.25
25,S17W,2.31
26,S17N,2.22

row,Variant,protein stability index
1,S17E,2.13
2,S17V,2.24
3,S17R,2.31
4,S17L,1.69
5,S17G,2.15
6,S17P,2.71
7,S17Q,1.86
8,S17C,1.71
9,S17Y,1.44
10,S17T,1.45
11,L18I,1.81
12,L18F,2.39
13,L18C,2.24
14,L18T,3.13
15,L18G,2.34
16,L18S,2.42
17,L18H,2.68
18,L18P,2.89
19,L18W,2.26
20,L18Q,2.39
21,P7I,2.75
22,P7L,2.37
23,P7G,2.38
24,P7Y,2.09
25,P7R,2.88
26,P7H,3.7

row,Variant,protein stability index
1,P7M,2.17
2,P7F,1.8
3,P7W,1.96
4,P7S,2.22
5,P7A,2.2
6,Y15T,1.9
7,Y15P,2.29
8,Y15C,2.24
9,Y15R,2.65
10,Y15E,2.19
11,Y15K,3.33
12,Y15M,1.54
13,Y15I,2.24
14,R2Y,2.22
15,R2K,2.02
16,R2W,2.18
17,R2V,3.06
18,R2I,2.06
19,R2T,1.91
20,R2D,2.1
21,R2Q,2.27
22,R2F,1.83
23,R2E,2.06
24,R2S,1.9
25,R2A,2.13
26,C9G,3.91

row,Variant,protein stability index
1,C9V,3.26
2,C9M,3.41
3,C9I,3.29
4,C9A,3.79
5,C9K,3.42
6,C9D,4.01
7,D3M,2.56
8,D3S,2.64
9,D3V,2.48
10,D3H,1.78
11,D3T,1.84
12,D3W,2.15
13,D3Y,1.42
14,D3E,1.64
15,D3C,2.08
16,D3G,1.6
17,D3K,2.64
18,D3Q,2.62
19,D3I,1.39
